{
  "source": "the DeepSol protein solubility set",
  "experiment": "soluble on expression in E. coli; label from the status in PepcDB or PDB records",
  "data": [
    {"sequence": "MNTEVIHYIIRFLIGDESGNDQLLSRIGYTSKQSEMSRYSIVIRASNFFDSDIYGTDKAFPLLPLKEWEGVPLLFGEPTEELLEESDTLVLNADIVASTYFLISRYEEMYRRKLRDIHGRFPGRESLPFKAGFLQRPVVDEYGAILRTKIRQMGWPVKDPVPHFSMVNLTHDVDEPFEYRGWRSFARALIKERKSPFKAFRLAYANPASDRFFTFPRFVDWDKILRSKMPDCCRIIFFFKAPGKAPQDAPNYSLRKPLYQSLRSLVKNNGIVIGLHSNYSAGLNPELIGKQRKRLMSDTDMAVDCNRHHYLAAREPEDMQALISAGIRHDYTMGYADVAGFRLGTSRPVRFIMPSTRRLTELILHPLTLMDCTLHRQEYMGLDEATAIELCKELLMHTFIHGGEATLLWHNEYLSRDIHPWHARLYREVLRLIETMEEKQEEESFDYETAIDQ", "values": [
      {"measurement": "soluble on expression in E. coli", "result": "not soluble"}
    ]},
    {"sequence": "YIDVKRMMYTLIVSFVFSRVVDSVLDGAYAAKGILIVSNHSEEIGQSLMASLERGVTYLNGEGAYSQVEKRVLYTVVSPREIMEVKRIANEIDEKAFVSIINVHEAIGEGFTYAKPSKQRRFKLKQ", "values": [
      {"measurement": "soluble on expression in E. coli", "result": "not soluble"}
    ]},
    {"sequence": "MSLNFPGSSSLLIVGASTRAAACSAVRAGFQPVCADQFADRDLRAVSEVVIKIDEHCHWLEEILKREPQNWIYTGALENRPEVINAINQRHTLLGNAEESLKKVRDPFFLQDMLVDQPIAISPCLPVDTQTPPRELWLRKPRLSAAGQGISFADSHTTDPTDSTQYYLQQFQPGIPLSALYLACDDCCVLIGTAVQFIGNRALHATGFQFCGGMTLPSMPPEWRHALGKLGHNIARGCHLRGLFGCDLIWNPDGQPGLWLTEVNPRYTALTELFELQYCLPLLRWHFAACRSCDASSAVAGTLADELIQLLKTKEKRTLSTVSKGIMYAPTDLTTPDLPWESSPRQVAWQIPTIADVPDRGTRIPAGTPVCTLYGTGDDQGECLLSMADQILRCQGQIQPELPRDLSRNEVRNMLWPRKESEKLNFSGFFSSRNVSGSFLEDEGHHHHHH", "values": [
      {"measurement": "soluble on expression in E. coli", "result": "soluble"}
    ]},
    {"sequence": "MFDRYDAGEQAVLVHIYFSQDKDMEDLQEFESLVSSAGVEAMQVITGSRKAPHPKYFVGEGKAVEIAEAVKATGAAVVLFDHALSPAQERNLERLCECRVIDRTGLILDIFAQRARTHEGKLQVELAQLRHLATRLVRGWTHLERQKGGIGLRGPGETQLETDRRLLRNRIVQIQSRLEKVEKQREQGRQSRIKADVPTVSLVGYTNAGKSTLFNQITEARVYAADQLFATLDPTLRRIDVADVGETVLADTVGFIRHLPHDLVAAFKATLQETRQATLLLHVVDAADVRVQENIEAVNTVLEEIDAHEIPTLMVMNKIDMLDDFEPRIDRDEENKPIRVWLSAQSGVGIPQLFQALTERLSGEVAQHTLRLPPQEGRLRSRFYQLQAIEKEWMEEDGSVSLQVRMPIVDWRRLCKQEPALIEYVILEHHHHHH", "values": [
      {"measurement": "soluble on expression in E. coli", "result": "soluble"}
    ]},
    {"sequence": "MMVPPRPGFAPLSLESINDRMEMHLFLTSACILYHIYIRDNLLIYQEIWTKYWRGRLAESALKNEISALYLRLPFPRPPTLQSIAEQEVICKDAAPIYVYCSREAMLSHVQSKDLCQFGRANLLACTLAPYRTGVTIEMVRCLFKRLRDGNRVEAGTGEEDLSHFVAFLPTTAFRRGPRFYLGGENVQFFLREGGLELPCHIIAFGRALFSEILADGSSWDWKSVGESSRLNHVRASVELSRNVPTAETTDNWAEAALGTDAVYPVRPPNLTPTQDHPCKPLLSGNRVPNERHRPWKRFFKKLRSVSKHFYFNRLEHHHHHH", "values": [
      {"measurement": "soluble on expression in E. coli", "result": "soluble"}
    ]},
    {"sequence": "SLEQPGFKLRAVTIHFEASADVDSIEDAVFKAKEAIDRLTAEKGVEVWSLRAVLTPGESVADSLGRVAELEPLVEEEGVFINLGLHNASADDWEAVSGIVESGFFLSFALENGTWEEARSYSKLLHRLADKSPDLAVHIGFNPLGTHILTPYFPLATSPGEQRTVTVALLYPRYLLESFRKGGLQAVIDSMVDAAQLSGEYGKAVAKDVEGSFAGVDLSISPWMEESSLALVEEVGGVRLPEPGFAYGLRLVNEAIAAAASKTGYAVGFNEVQLPVAEDSKLKVRVAELETSARDLLRLSGVCLAGLDMAVIPASLDGVAGLLLEARAYSRAKGSIVGVRLIPLDGVEPGDEVFLKRFGEVPVIPI", "values": [
      {"measurement": "soluble on expression in E. coli", "result": "soluble"}
    ]},
    {"sequence": "ADQVDPQLKFAMQRDLGIFPTQLPQYLQTEKLARTQAAAIEREFGAQFAGSWIERNEDGSFKLVAATSGARKSSTLGGVEVRNVRYSLKQLQSAMEQLDAGANARVKGVSKPLDGVQSWYVDPRSNAVVVKVDDGATDAGVDFVALSGADSAQVRIESSPGKLQTT", "values": [
      {"measurement": "soluble on expression in E. coli", "result": "soluble"}
    ]},
    {"sequence": "MSLDEVECSADHIARPILILKETRRLPWATGYAEVINAGKSTHNEDQASCEVLTVKKKAGAVTSTPNRNSSKRRSSLPNGEGLQLKENSESEGVSCHYWSLFDGHAGSGAAVVASRLLQHHITEQLQDIVDILKNSAVLPPTCLGEEPENTPANSRTLTRAASLRGGVGAPGSPSTPPTRFFTEKKIPHECLVIGALESAFKEMDLQIERERSSYNISGGCTALIVICLLGKLYVANAGDSRAIIIRNGEIIPMSSEFTPETERQRLQYLAFMQPHLLGNEFTHLEFPRRVQRKELGKKMLYRDFNMTGWAYKTIEDEDLKFPLIYGEGKKARVMATIGVTRGLGDHDLKVHDSNIYIKPFLSSAPEVRIYDLSKYDHGSDDVLILATDGLWDVLSNEEVAEAITQFLPNCDPDDPHRYTLAAQDLVMRARGVLKDRGWRISNDRLGSGDDISVYVIPLIHGNKLSEGHHHHHH", "values": [
      {"measurement": "soluble on expression in E. coli", "result": "soluble"}
    ]},
    {"sequence": "MLSIKDLHVSVEDKAILRGLSLDVRPGEVHAIMGPNGSGKSTLSATLAGREDYEVTGGTVEFKGKDLLALSPEDRAGEGIFMAFQYPVEIPGVSNQFFLQTALNAVRSYRGQETLDRFDFQDLMEEKIALLKMPEDLLTRSVNVGFSGGEKKRNDILQMAVLEPELCILDESDSGLDIDALKVVADGVNSLRDGKRSFIIVTHYQRILDYIKPDYVHVLYQGRIVKSGDFTLVKQLEEQGYGWLTEQQ", "values": [
      {"measurement": "soluble on expression in E. coli", "result": "not soluble"}
    ]},
    {"sequence": "MRWFLLIVVSALFLSGCMPEIYTHASTPSTIIADNETHIAGRYAFVDVQVLDEYGLPVSGEDVSFYVDGAFLGEATTDTSGVARIGFFSPSEKTYTFTAVAGGVSRSFDVSFTKPKWLFIVWMAADNNLYYYSEDDLSEMRNASGSVSVVVVYDGIGIGDGMLVLDESGNFQAVVGTMGIDFNSGSYTNLEAWLEMILNQFDADHYALVIWDHGSAWIGDSYYISTKVIGYDDFQGTAIAVSNLRKALENALSGDKLDILGFDACLMGSLEVIYELRNTADYIVASSFNEPAEGWDYSFLGEIAPDSTPLDVARMIVDSYREYYSSDTYQNELSLAVYDTSQVEVFVSDLNLFISDLKADLSKVDAVYSDVVKSYIDDYNQTVLVDLGDFIDRWVSSSRITTAPDLSSVVVYSYGEIAGKTLSFPISIFMPESMSCYQDYQTDYQTLSFPYDTQWDEFLEYWLNQKGGLEHHHHHH", "values": [
      {"measurement": "soluble on expression in E. coli", "result": "not soluble"}
    ]},
    {"sequence": "MSLGNTTVVTTTVRNATPSLTLDAGTIERFLAHSHRRRYPTRTDVFRPGDPAGTLYYVISGSVSIIAEEDDDRELVLGYFGSGEFVGEMGLFIESDTREVILRTRTQCELAEISYERLQQLFQTSLSPDAPRILYAIGVQLSKRLLDTTRKASRLAFLDVTDRIVRTLHDLSKEPEAMSHPQGTQLRVSRQELARLVGCSREMAGRVLKKLQADGLLHARGKTVVLYGTR", "values": [
      {"measurement": "soluble on expression in E. coli", "result": "soluble"}
    ]},
    {"sequence": "HHMAQANFGVVGMAVMGKNLALNVESRGYTVAIYNRTTSKTEEVFKEHQDKNLVFTKTLEEFVGSLEKPRRIMLMVQAGAATDATIKSLLPLLDIGDILIDGGNTHFPDTMRRNAELADSGINFIGTGVSGGEKGALLGPSMMPGGQKEAYDLVAPIFEQIAAKAPQDGKPCVAYMGANGAGHYVKMVHNGIEYGDMQLIAESYDLLKRILGLSNAEIQAIFEEWNEGELDSYLIEITKEVLKRKDDEGEGYIVDKILDKAGNKGTGKWTSESALDLGVPLPLITESVFARYISTYKDERVKASKVLSGPALDFSGDKKEVIEKIRKALYFSKIMSYAQGFAQLRKASEEFDWDLPYGTIAQIWRAGCIIRAEFLQNITDAFDKDSELENLLLDDYFVDITKRYQEAVRDVVSLAVQAGTPIPTFTSAISYYDSYRSENLPANLIQAQRDYFGAHTYERTDKAGIFHYDWYTED", "values": [
      {"measurement": "soluble on expression in E. coli", "result": "soluble"}
    ]},
    {"sequence": "AHHHHHHGSRFLIRLVPEDKDRAFKVPYNHQYYLQGLIYNAIKSSNPKLATYLHEVKGPKLFTYSLFMAEKREHPKGLPYFLGYKKGFFYFSTCVPEIAEALVNGLLMNPEVRLWDERFYLHEIKVLREPKKFNGSTFVTLSPIAVTVVRKGKSYDVPPMEKEFYSIIKDDLQDKYVMAYGDKPPSEFEMEVLIAKPKRFRIKPGIYQTAWHLVFRAYGNDDLLKVGYEVGFGEKNSLGFGMVKVEGNKTTKEAEEQEKITFNSREELKTGV", "values": [
      {"measurement": "soluble on expression in E. coli", "result": "not soluble"}
    ]}
  ]
}
